# Source: the DeepSol protein solubility set
# Assay: soluble on expression in E. coli; label from the status in PepcDB or PDB records
row,Sequence,soluble on expression in E. coli
1,MSRFNPSPVSLSVTLGLMFSASAFAQDATKTDETMVVTAAGYAQVIQNAPASISVISREDLESRYYRDVTDALKSVPGVTVTGGGDTTDISIRGMGSNYTLILVDGKRQTSRQTRPNSDGPGIEQGWLPPLQAIERIEVIRGPMSTLYGSDAIGGVINIITRKDQQQWSGNVQLSTVVQENRASGDEQSANFFVTGPLSDALSLQVYGQTTQRDEDEIEHGYGDKSLRSLTSKLNYQLNPDHQLQLEAGVSAQDRENNVGKSAQSSGCRGTCSNTDNQYRRNHVAVSHQGDWQDVGQSDTYLQYEENTNKSREMSIDNTVFKSTLVAPIGEHMLSFGVEGKHESLEDKTSNKISSRTHISNTQWAGFIEDEWALAEQFRLTFGGRLDHDKNYGSHFSPRVYGVWNLDPLWTVKGGVSTGFRAPQLREVTPDWGQVSGGGNIYGNPDLKPETSINKELSLMYSTGSGLAASLTAFHNDFKDKITRVACPANICTAGPNQWGAAPTYRVNIDEAETYGAEATLSLPITESVELSSSYTYTHSEQKSGNFAGRPLLQLPKHLFNANLSWQTTDRLNSWANLNYRGKEMQPEGGASNDDFIAPSYTFIDTGVTYALTDTATIKAAVYNLFDQEVNYAEYGYVEDGRRYWLGLDIAF,not soluble
2,VVELPKTDEGLGFNIMGGKEQNSPIYISRVIPGGVADRHGGLKRGDQLLSVNGVSVEGEQHEKAVELLKAAQGSVKLVVR,soluble
3,MGYKTILAVVDNVSNTQKLGEFVVSLADQFSSHVIGLHMETLAAVPLVAPMEIPDPATVQALQDVAHKETTDVGTLFERTLSTNGISHEWRSFVTSVGYASASAIDSARCADLIVARQSSSSALSDSRSDIDGFLYESGRPVLLVPHVLTVAKPIKRVLIAWNGSREATRATFDALPFLKAADSVEIFSVDQSESETQSAGLAGAELAATLARHGVNVTVTSQEKIAGLSPQAAIENRLSDNSIDLLVMGAYGHSRWWELLFGGVTRTLLDSMTAMTLLSR,soluble
4,MEVPENLKNPQNARREGSNMKCLADYSVEKEVGEGSFSTVYLARRKEPKNDENPEVALKICLKRLILKNKMVPYIHREKEALALISREENAHPGIVTLYATFQDSESLYFVLEYAKYGDLCTLMQKQPDSKFNVADSRYYAANLLSALEHIHKLGIIHRDVKADNLLVKSDGRIMLTDFGSSKFLSDYQKIQENPVEEEQPTGRRSSFVGTAFFVTPELLTGSEMSPSSDLWAFSVTLYLFLTGIYPFNDMSEYLVFRRIQDILYTFSEDFPDENAKNLIERLLVKEQKSRLTSQEIKEHKFFESIDFEHLEQLEPPRIY,not soluble
5,VDRLHIIGDIFDRGPRADIIMDKLEEYHAVDIQWGNHDILWMGAASGSSVCMANVIRISARYANLSTIEDGYGINLLPLATFAMDFYGNDKCKNFEPKIESDKSYTVKEIELIGKMHKAIAIIQFKLEGEAIKRHPEFKMEHRMLLNKINFEDSTIELDGKKYKLNDTSFPTIDKNDPYKLIDEEREVVEKLRSSFVNSEKLNRHVRFLFSHGNLYLKFNSNLLYHGCIPLNEDGTFKEVLIGSHKYKGKALLDKLDVLARKSFFYEENSKNSKYENDMIWYLWSGPFSPLFGKEKMTTFERYFIDDKKTHYEKKDPYYHYRDDEDICINILREFGLDSEQAHIINGHVPVESKNGENPIKANGKLIVIDGGFSKAYQSKTGIAGYTLIYNS,not soluble
6,MAHHHHHHSTLRHSHEPSPYVQKGEDLSGQKLTPTIKSYRNMEFLNSYSGRMIRILCEFEEPKQRLQQHFIRTTVLFFGSARSMTQAQYDSTVQDIHSKLAAATDDSTKASLQNKLACLKKTQWMCKWVDVVENLARMVAEFSQKEQDMIIRSFRHIPDYFRLTPEDGSESLDDLQKRFHDLVVTTGGGPGFMEAANHGAESVPGAVTMGMGISLPFENGLNPHVTKGLAFEFHYFFTRKFWMMYSCRAIVIAPGGFGTLDEMFELLTLKQTKKIPSLPVVLLGKEFWQTVVNWQALANYGVISQEEIDSLLFTDSAEEAVEHIKDFYHRLASDSPSTE,soluble
7,HYHGIAANPADIQHEFCTSAQSDLNETQWLLAAKSLGLKAKVVRQPIKRLAMATLPALVWCDDGNHFILAKTDGEGEHAQFLIQDLVTNKSAVLSFAEFSNRYSGKLILVASRASVLGSLAKFDFTWFIPAVIK,not soluble
8,MGSDKIHHHHHHMRVITVAGPPSVGKTSVVVKTATTLAAQGHRLGIVKFDSLSTSDDQVYRRAGLPVVVGLSGNVCPDHFFVSNIDDCVDWGRTHGVDILVAESAGLCNRCSPHVQGVQAICVVDNLSGVHTPRKIGPMLKLADVVVITKGDIVSQAEREVFAYNVRLANPRAQVMQFHGITGQGASDLAARMLCAPVVDALEGRRLRFSMPSAVCPYCIGETAIGVDHQRGNVRKMSFAEPAR,not soluble
9,MAFEATKREWCELYTFFRLLTEGKVTLGTAKAKKGEIDWPIAMIQREEHDGTRCYYIEKEMVRIKGENSEKFVPREDFGIVADLILQAVKSSSEDEVTSPDGVEEFLDEVAIFDLEAKTEDRTDFYIAFWHPEAPLSGFSVRSRLGAMNPLLDGGRAANLKLEQSGVKFATPTVNKINALPEAPNEVAERMLLIERLGGVLKYSDVADRVFRSNLLMIDLHFPRVLTEMVRIMHLDDITRISELTEVIKQMNPLKIKDELVNKHGFYEFKVKQFLMALALGMRPAKIYTGQDSAVEGILLMDGSGEVLCYHKSEKPVMEDFLFLNTRLEKGSLDKDKYGFLERENGTYYFKLNAKIGLVKR,not soluble
10,MSHAVSRLRDLRMARVAKPFFARGSRAERCPRCRVIPSHCLCAWRPKVVARSAMCLVMHDVEPLKPSNTGWLIADVIGDTTAFSWSRTEVDPQLLALLADPQWQPYIVFPGEFVAPERVVSEVRQEEGKRPLFILLDATWSEARKMFRKSPYLEHLPVLSLSPEKLSRYKLRRSKRDDHFCTAEVAALCLELAGDEQVSQVLDAYLDVFSTHYLSAKFQKAIDPDDDVHARLKPFVLEHHHHHH,not soluble
11,MNIKEKIVVLRNTEDGSFLKSFKNKKDVLAYNVELTDSIQLASFLPEEAYNIQKEKIDNLAETLGCDVVVIEASYDLKFVDGEDVPELTKEQKVKSMVNGMFEQVFGGE,not soluble
12,MSLEQHGNVVSVGLKLYNEILKETITRFKERRIEKKHSVNVEIENPPGRFFIPEDYVQNPVERLRLYRRLASSLDEEDLEEILEEMKDRFGEPPEEVKLLVDYFRLRVRASKLGIKKIRFDHSMVEIFPSRNSPFLNHPRYDRRSGSVVLYTRKDPVEFLMDMLKKEGHHHHHH,soluble
13,MHSEVTPIHHYKKYWAECFGTAPFLPTSREEMDQLGWDSCDVIIVTGDAYVDHPSFGMAIIGRLLEAQGFRVGIIAQPEWQTKDAFMTLGKPNLFFGVTAGNMDSMINRYTADKKIRHDDAYTPNNKGGMRPDRCSLVYSQRCREAYKDVPIVLGGIEASLRRVAHYDYWSDKVRRSILLDAKADILLFGNAERALVEVAHRLANGESINKMVDIRGTAVNLAQVPEHFKIIDSTRIDQPNKPFVPSNPYEVETQCATKGDEKEEAQPITIRPSRHDAKTTAVRLPSFEKLVNDRILYAHASRVLHLETNPYSGRALVQRHGDRELWVNQAPIPLTTEEMDFVFGLYYARVPHPKYGDAKIPAYDMIKTS,soluble
14,MRISLKQLNVFTVIAQEKTMTKAAERLYITKPAVSLSLSELEKNLGYKVFDRVNNRLVLNSEGRQLLPLADELLERAEVIEHQFATDSQLTGSLNIGASDTIGNHIAPVLLSKFQQQYPCDIQQLFISNTAQIINRLLEFQLDIGLVEGKAHHPKLNMIEWRRDDMYLVCSPSHPLATKAQVTLDDLEHSTWLLREEGSGSREYFINHIAANLNDWHESLQLHTTEAIINCCAENMGLACLSQLAAQNAINDGRLVKLAYNKTLARQYWLLVHKEKYQTPLLQYFMNFIQQK,not soluble
15,MAHHHHHHMKLLKVSPEKNIEFPLVHFQAVTQVVKLENISDRKVAFKIKTTAPNNYLVRPSFGLINVKETIDIQIILQPLSDKDNISNDKFQVQCLNVDDDTTVDKQFWVTVNKNEIQDHKLVVVLNDESFSKGPHSYLPPNNNPLTEINNKGHNLNYGENNLNADDANMAEGTNQRRPHRVCAAV,soluble
16,MGSDKIHHHHHHMPKQTFFNLKDEKRQRIIDAAEREFSQCPLYESSINNIIKDAKIPRGSFYQYFDDLSDLYGYYFSLILEDIQENLIDSVQEADGDIFSAVKKYAGEYMKEIISGNHRDFYRNFFLGANISKRSKDGKHPGFDVYHSDRMKELRVNLKKEVNWKLLKVTNEKDQNMIQQLIMMIFFHSFANYFVHSNNTDSDPAEVQKEIERNLNWLEFGARRTEDK,not soluble
17,GGPTIMVALANPRTESALITLASALAQHEDGRVLATHIATVPDQTALETAAANRDRIDATSESLLDTAKADAEAFDVPIETKTILSHRGIEEVFDAARTNHADTVVMGYGGTQFAGGRAEGTLDELAHDLPCDFLVLDGQDL,not soluble
18,MRAELWQEQRLQLSLTKELVQAIELLQYSAADLEAFLYEQSLENPFLEIRRTRVRQRPSRTERDQKQWLENIGARAETLVGHLLSQLPALKLGDREERIVRYLIASLDEDGYLRVPLAELAARFSASEQEMERGLRLVQSLDPPGVGARDLAECLLLQLERLPERDELAETIVRYHFVPFAEKSWKTLAKQLGVSLGELQRVFELIRTLEPRPGIHYSSETLPLVVPDVIVTRGADGDWMAAYNDDIHPELGWNRDYERRIAASGDRHAEQFIKEKYRQFTWLAKSLEQRKQTLLHLMAVIIDRQRSCLEFGLSALKPMTMREVAEELGVHESTVSRAVRHKYVQTPFGTVELRRFFSNAATAAGDEAASSAHVKAIMEALISEEDRRAPLSDQQLADLLRDRYGIAISRRTVAKYREQLRIPSSAKRRQYIGLP,not soluble
19,MGHHHHHHSHMANSAGSMANSAGSPGSLFRFAVPPALGSNLTDNVMITVDIIPSGWNSADGKSDKTKSAPSRDPERLQKIKESLLLEDSEEEEGDLCRICQMAAASSSNLLIEPCKCTGSLQYVHQDCMKKWLQAKINSGSSLEAVTTCELCKEKLELNLEDFDIHELHRAHANEQAEYEFISSGLYLVVLLHLCEQSFSDMMGNTNEPSTRVRFINLARTLQAHMEDLETSEDDSEEDGDHNRTFDIA,soluble
20,MPAHSLSLYQYYRPPLDWQAQLAFYRLRAVAGMEWFSNTDNDCLEKIAQDKQALEYGRTLQIDDIRAVVHIIHEAHLHRFKLTLTFTPDSPIAGLQKLITQVRRILDLDADMQQIEHNLQRLTDLKLIPKSGLRIPGAGSLEHHHHHH,not soluble
21,GKRDNLEIDRTGLALTAFYARNLAVPERRRVEHPQVLRGKQLFHEAGCPACHVPKFVTHRLKDQPEQSFQLIWPYTDLLLHDMGEGLADGRPEGRATGREWRTAPLWGIGLTEQVSGHANFLHDGRARSILEAVLWHGGEAEAARARVMALPAPDRAALVAFVEDL,not soluble
22,MKPILALLSLLALPVMAAEPTLYGRYENIKVLEIGQTFKAKMDTGALTASLSAKDIELFQRDGDDWVRFRLATKGADDKVYEHKVSRISKIKGRAEGDDEDDEGINPAKRPVVDLELCLGNKKRTVEVNLVDRSHFNFPLLIGAKALREFGAAINPARRYTADEPDC,not soluble
23,SLTPDSTAGSLHIDCPTGLAGDMLLAALLDLGVPLEVIKAPLARLGLKDMVRLDVEETRSGGLRGRRLNVVGLEPDPPHRHWAEIRDRLQNSSLEPKLLQTVLAVFTALAEAEATVHAQTPESVHFHEVGAIDALVDVVGVCAAIHHLAPHRISCAPPPAGHGSVTTAHGLLPVPVPAVLELARAHQVPLRHDPSLPEGELTTPTGLALVSVLAERFTAPPLFTPSAIGIGLGHRRLDRPNLVRLCLGQGESATLDLEARWQPLVVQEAWIDDASAEDIAWLLDRLRQAGALDVACQSLLMKKGRAGVAVTALVSTEQAPQLRRTWFEAGPSIGLRERQQGRWLLPRRAGTLSTPWGVLTAKQVRRPDGHCTVKPEADALQRLSQASGCSVADLRAAAQAASFESEEPWTW,not soluble
